Biological target: δ-PKC in isolated rat hearts (rat), P09215
Assay: cell-based or functional assay

Sequence of δ-PKC in isolated rat hearts (rat), P09215 (P09215 whole entry, stated change not applied): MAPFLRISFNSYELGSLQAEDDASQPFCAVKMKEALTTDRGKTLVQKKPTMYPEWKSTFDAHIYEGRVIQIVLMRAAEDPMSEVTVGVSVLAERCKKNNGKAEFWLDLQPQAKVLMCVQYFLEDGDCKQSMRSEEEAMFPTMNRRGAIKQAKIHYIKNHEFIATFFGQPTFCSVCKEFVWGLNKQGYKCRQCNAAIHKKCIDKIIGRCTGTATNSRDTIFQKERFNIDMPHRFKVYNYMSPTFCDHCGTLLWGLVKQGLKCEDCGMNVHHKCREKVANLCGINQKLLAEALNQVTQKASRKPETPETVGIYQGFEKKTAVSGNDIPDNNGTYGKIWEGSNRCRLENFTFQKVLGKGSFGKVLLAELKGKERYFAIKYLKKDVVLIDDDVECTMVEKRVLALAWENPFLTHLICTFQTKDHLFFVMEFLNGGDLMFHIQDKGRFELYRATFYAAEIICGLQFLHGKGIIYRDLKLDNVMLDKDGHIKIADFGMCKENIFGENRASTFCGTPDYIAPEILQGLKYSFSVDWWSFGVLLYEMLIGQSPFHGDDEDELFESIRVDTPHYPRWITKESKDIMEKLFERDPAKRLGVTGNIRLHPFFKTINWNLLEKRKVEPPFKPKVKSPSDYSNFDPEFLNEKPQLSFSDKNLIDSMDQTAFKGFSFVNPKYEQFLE

B1: annexin V-derived peptide pAnxV (annexin V residues 157-164) conjugated to TAT47-57 carrier peptide (peptide)
peptide: LQANRDPD
chain: YGKKRRQRRR
modifications: not checked
Work on B1 yielded a creatine phosphokinase (CPK) release in the heart perfusate during reperfusion of over 50 % reduction and an infarct size after ischemia/reperfusion in isolated rat hearts of 70 % reduction.

— patent US20090081786A1, “Peptide sequences for modulation of protein kinase C” (priority 2006, published 2009)
